The target of the assay is wild-type human γS-crystallin (human) (UniProt P22914). Kind of assay: SEC-MALS.

For orientation: stoichiometry N means a count of units in the complex or per binding partner.

For the substance “wild-type human γS-crystallin (from UniProt P22914 1-178) (natural protein)”, the stoichiometry N came to 2.
